Positions count from the first letter of the chain named. In names and notes the source's numbering stands. Values belong to the binder of their own block, whether it stands above or below them.
Molecular target: Alexa-Fluor-488-conjugated recombinant hCD19-hFc (Homo sapiens, UniProt P15391, Alexa Fluor 488 conjugate)
Assay: flow cytometry on cells

Chain of Alexa-Fluor-488-conjugated recombinant hCD19-hFc (P15391 20-291): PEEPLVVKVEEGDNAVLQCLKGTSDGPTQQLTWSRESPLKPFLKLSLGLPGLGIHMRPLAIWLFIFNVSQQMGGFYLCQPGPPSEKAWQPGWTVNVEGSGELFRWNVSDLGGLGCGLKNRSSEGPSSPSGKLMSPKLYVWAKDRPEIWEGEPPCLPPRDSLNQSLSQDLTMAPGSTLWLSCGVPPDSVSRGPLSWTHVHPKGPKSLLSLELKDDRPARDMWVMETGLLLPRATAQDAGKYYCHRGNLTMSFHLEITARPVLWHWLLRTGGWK

binding result: binds
B3: SJ25C1^I120V CAR on CAR T cells (receptor)
VH: EVKLQQSGAELVRPGSSVKISCKASGYAFSSYWMNWVKQRPGQGLEWIGQIYPGDGDTNYNGKFKGQATLTADKSSSTAYMQLSGLTSEDSAVYFCARKTVSSVVDFYFDYWGQGTTVTVSS
VL: DIELTQSPKFMSTSVGDRVSVTCKASQNVGTNVAWYQQKPGQSPKPLIYSATYRNSGVPDRFTGSGSGTDFTLTITNVQSKDLADYFCQQYNRYPYTSGGGTKLEIK

binding result: binds
B4: FMC63^Y261A CAR on CAR T cells (receptor)
VH: EVKLQESGPGLVAPSQSLSVTCTVSGVSLPDYGVSWIRQPPRKGLEWLGVIWGSETTYYNSALKSRLTIIKDNSKSQVFLKMNSLQTDDTAIYYCAKHYYAGGSYAMDYWGQGTSVTVSS
VL: DIQMTQTTSSLSASLGDRVTISCRASQDISKYLNWYQQKPDGTVKLLIYHTSRLHSGVPSRFSGSGSGTDYSLTISNLEQEDIATYFCQQGNTLPYTFGGGTKLEIT

Second part, the binder before the results:

B1: SJ25C1^WT CAR (SJ25C1 scFv, CD28, CD3-zeta) on CAR T cells (receptor)
VH: B3 VH with V101I
VL: B3 VL
binding result: binds

B2: SJ25C1^W52F CAR on CAR T cells (receptor)
VH: B3 VH with W33F, V101I
VL: B3 VL
binding result: binds

From article PMC10228544 (Science immunology, 2023)
